Test system: Escherichia coli TOP10
Test: shrunken log2 fold change of peptide-encoding DNA abundance (4.5 h post-induction vs induction); higher = less antimicrobial activity (less host growth inhibition)
Conditions: time post-induction: 4.5 h; library: site-saturation at positions 5, 18, 19, 20
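Also: peptides expressed intracellularly from a pBAD plasmid library in pooled LB shake-flask culture, induced with 0.3% L-arabinose, DNA abundance read by NGS, three biological replicates, DESeq2 with apeglm shrinkage.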

Sequence	shrunken log2 fold change
RRIRLRPPRLPRPRPRPGELPRP	0.0243
RRIRHRPPRLPRPRPRPKRYPRP	-0.0093
RRIRPRPPRLPRPRPRPSGHPRP	-0.395
RRIRDRPPRLPRPRPRPYDTPRP	-0.0872
RRIRMRPPRLPRPRPRPEGFPRP	2.81
RRIRIRPPRLPRPRPRPWGFPRP	-0.185
RRIRVRPPRLPRPRPRPVGVPRP	0.321
RRIRLRPPRLPRPRPRPRWNPRP	-0.0729
RRIRTRPPRLPRPRPRPCWYPRP	4
RRIRRRPPRLPRPRPRPLKQPRP	0.223
RRIRLRPPRLPRPRPRPYDGPRP	0.0118
RRIRDRPPRLPRPRPRPDGWPRP	0.965
RRIRIRPPRLPRPRPRPVQQPRP	-0.168
RRIRTRPPRLPRPRPRPVLYPRP	-0.365
RRIRIRPPRLPRPRPRPGYTPRP	-0.206
RRIRTRPPRLPRPRPRPCCAPRP	0.125
RRIRVRPPRLPRPRPRPVTLPRP	-0.227
RRIRHRPPRLPRPRPRPEANPRP	0.00386
RRIRFRPPRLPRPRPRPYQDPRP	-0.151
RRIRIRPPRLPRPRPRPDFVPRP	-0.0852
RRIRLRPPRLPRPRPRPPLTPRP	0.288
RRIRFRPPRLPRPRPRPREVPRP	0.199
RRIRFRPPRLPRPRPRPMFRPRP	0.0591

Sequence	shrunken log2 fold change
RRIRIRPPRLPRPRPRPSCSPRP	-0.83
RRIRARPPRLPRPRPRPPWKPRP	0.429
RRIRDRPPRLPRPRPRPGGHPRP	0.188
RRIRYRPPRLPRPRPRPRETPRP	-0.0404
RRIRKRPPRLPRPRPRPTISPRP	-0.279
RRIRPRPPRLPRPRPRPKKWPRP	-0.0589
RRIRHRPPRLPRPRPRPKTKPRP	0.0995
RRIRGRPPRLPRPRPRPHKIPRP	0.11
RRIRMRPPRLPRPRPRPNVGPRP	-0.0241
RRIRYRPPRLPRPRPRPKNRPRP	-0.0456
RRIRMRPPRLPRPRPRPTSWPRP	0.834
RRIRARPPRLPRPRPRPEINPRP	0.96
RRIRFRPPRLPRPRPRPQYPPRP	0.041
RRIRHRPPRLPRPRPRPPPRPRP	1.25
RRIRVRPPRLPRPRPRPVNLPRP	-0.322
RRIRPRPPRLPRPRPRPRLVPRP	0.323
RRIRARPPRLPRPRPRPDWLPRP	0.432
RRIRARPPRLPRPRPRPHYHPRP	-0.332
RRIRERPPRLPRPRPRPTHRPRP	0.243
RRIRLRPPRLPRPRPRPAWQPRP	0.202
RRIRSRPPRLPRPRPRPHLAPRP	-0.0617
RRIRNRPPRLPRPRPRPVSYPRP	0.0156
RRIRSRPPRLPRPRPRPDTVPRP	-0.323

Sequence	shrunken log2 fold change
RRIRGRPPRLPRPRPRPFFIPRP	0.0612
RRIRVRPPRLPRPRPRPYGNPRP	-0.0775
RRIRWRPPRLPRPRPRPQFQPRP	-0.523
RRIRCRPPRLPRPRPRPPGWPRP	0.612
RRIRSRPPRLPRPRPRPQPWPRP	0.366
RRIRDRPPRLPRPRPRPVPVPRP	-0.346
RRIRARPPRLPRPRPRPKAPPRP	0.56
RRIRLRPPRLPRPRPRPCHQPRP	-0.234
RRIRHRPPRLPRPRPRPYVRPRP	0.017
RRIRARPPRLPRPRPRPEFDPRP	1.44
RRIRNRPPRLPRPRPRPNNEPRP	-0.208
RRIRRRPPRLPRPRPRPSMVPRP	-0.298
RRIRERPPRLPRPRPRPEPAPRP	0.428
RRIRERPPRLPRPRPRPPIGPRP	-0.144
RRIRFRPPRLPRPRPRPESVPRP	0.257
RRIRHRPPRLPRPRPRPFIQPRP	-0.577
RRIRHRPPRLPRPRPRPCQFPRP	-0.0209
RRIRTRPPRLPRPRPRPIYIPRP	-0.949
RRIRVRPPRLPRPRPRPIRMPRP	-0.243
RRIRFRPPRLPRPRPRPMLGPRP	-0.055
RRIRRRPPRLPRPRPRPNHYPRP	-0.314
RRIRQRPPRLPRPRPRPSCMPRP	-0.508
RRIRMRPPRLPRPRPRPTDRPRP	0.894

Sequence	shrunken log2 fold change
RRIRHRPPRLPRPRPRPPTCPRP	0.0978
RRIRHRPPRLPRPRPRPIYGPRP	-0.0133
RRIRIRPPRLPRPRPRPIHSPRP	-0.302
RRIRPRPPRLPRPRPRPVMQPRP	0.136
RRIRFRPPRLPRPRPRPMARPRP	-0.0235
RRIRKRPPRLPRPRPRPGPQPRP	0.561
RRIRMRPPRLPRPRPRPRNLPRP	0.0196
RRIRHRPPRLPRPRPRPRAGPRP	0.638
RRIRFRPPRLPRPRPRPSRKPRP	-0.0267
RRIRRRPPRLPRPRPRPFDCPRP	0.264
RRIRVRPPRLPRPRPRPHDYPRP	-0.264
RRIRGRPPRLPRPRPRPRYVPRP	-0.0805
RRIRYRPPRLPRPRPRPRYKPRP	-0.451
RRIRPRPPRLPRPRPRPCLLPRP	-0.258
RRIRQRPPRLPRPRPRPITSPRP	-0.0775
RRIRDRPPRLPRPRPRPFTCPRP	-0.00884
RRIRDRPPRLPRPRPRPHQEPRP	-0.281
RRIRPRPPRLPRPRPRPSYFPRP	-0.514
RRIRSRPPRLPRPRPRPFCRPRP	-0.0968
RRIRYRPPRLPRPRPRPGGAPRP	0.359
RRIRERPPRLPRPRPRPVDPPRP	-0.342
RRIRWRPPRLPRPRPRPTVQPRP	0.116
